Numbering of substitutions follows the chain as printed. One block for each binder: values may come before it.
Molecular target: T1, human plasma kallikrein (human, UniProt P03952 20-390; P03952 391-638)
T1 construct: also called pKal; Human pKal
Assay: ELISA, biotinylated pKal signal over streptavidin background
Source text: Abbreviations used: “T/B” is the ELISA signal obtained using of the “target” (biotinylated plasma kallikrein) divided by the ELISA signal of the “background” (streptavidin); both of which were coated on microtiter plates, “nd” is not determined. The symbol “q” refers to the amber suppressible stop codon (TAG), which is translated as glutamine (Q) in strains of E. coli such as the TG1 cells that were used to express the Fab fragments.

T1 sequence (P03952 20-390, chain 1 of 2): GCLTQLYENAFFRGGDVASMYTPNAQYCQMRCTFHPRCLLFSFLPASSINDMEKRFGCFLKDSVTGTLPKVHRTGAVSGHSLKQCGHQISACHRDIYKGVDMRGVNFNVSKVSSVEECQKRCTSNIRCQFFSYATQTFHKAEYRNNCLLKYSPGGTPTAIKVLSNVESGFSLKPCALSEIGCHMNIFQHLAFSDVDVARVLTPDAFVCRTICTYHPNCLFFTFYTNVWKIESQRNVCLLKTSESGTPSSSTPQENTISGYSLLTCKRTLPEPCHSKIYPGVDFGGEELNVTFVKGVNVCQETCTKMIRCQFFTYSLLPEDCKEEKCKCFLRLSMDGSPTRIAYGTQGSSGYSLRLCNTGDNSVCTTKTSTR
T1 sequence (P03952 391-638, chain 2 of 2): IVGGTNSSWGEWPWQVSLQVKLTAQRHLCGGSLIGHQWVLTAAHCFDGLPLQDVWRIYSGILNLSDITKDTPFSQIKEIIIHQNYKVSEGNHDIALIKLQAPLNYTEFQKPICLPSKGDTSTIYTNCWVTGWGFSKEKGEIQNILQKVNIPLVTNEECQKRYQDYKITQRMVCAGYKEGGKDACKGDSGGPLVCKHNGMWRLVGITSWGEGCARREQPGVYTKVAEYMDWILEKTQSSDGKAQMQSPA

B1: M12-E06 (Fab, V domains shown)
VH: EVQLLESGGGLVQPGGSLRLSCAASGFTFSQYKMLWVRQAPGKGLEWVSGIGPSGGLTAYADSVKGRFTISRDNSKNTLYLQMNSLRAEDTAVYYCARAPWFGELGMDVWGQGTTVTVSS
VL: DIQMTQSPSSLSASVGDRVSITCRASQSISTYLNWYQHKPGKAPTLLIYGAFSLQSGVPSRFSGSGSGTDFALTISSLQPEDFATYYCQQSHSTPPTFGQGTRVEIK
notes: HC as printed runs into CH1
- ELISA (T/B): 48 T/B

B2: M11-G12 (Fab, V domains shown)
VH: EVQLLESGGGLVQPGGSLRLSCAASGFTFSQYPMNWVRQAPGKGLEWVSSISSSGGFTTYADSVKGRFTISRDNSKNTLYLQMNSLRAEDTAVYYCAREEQQGGFDYWGQGTLVTVSS
VL: DIQMTQSPSSLSAFVGDRVSITCRASQTISVYVNWYQHKSGQAPKLLIYGASSLQSGVPSRFSGSGSGTDFTLTISSLQPEDFATYFCQQSYSIPFTFGGGTDVQIR
notes: HC as printed runs into CH1
- ELISA (T/B): 4.9 T/B

B3: M27-B01 (Fab, V domains shown)
VH: EVQLLESGGGLVQPGGSLRLSCAASGFTFSDYTMWWVRQAPGKGLEWVSSISSSGGITFYADSVKGRFTISRDNSKNTLYLQMNSLRAEDTAVYYCARSADTAMGGAFDIWGQGTMVTVSS
VL: not shown
notes: HC as printed runs into CH1
- ELISA (T/B): 33.1 T/B

B4: M27-E03 (Fab, V domains shown)
VH: EVQLLESGGGLVQPGGSLRLSCAASGFTFSSYMMHWVRQAPGKGLEWVSGIYPSGGWTDYADSVKGRFTISRDNSKNTLYLQMNSLRAEDTATYYCARLVAGLDAFDIWGQGTMVTVSS
VL: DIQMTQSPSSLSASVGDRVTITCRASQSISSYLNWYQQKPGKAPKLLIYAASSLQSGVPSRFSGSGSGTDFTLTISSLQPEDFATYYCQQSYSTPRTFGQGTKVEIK
notes: HC as printed runs into CH1
- ELISA (T/B): 35.9 T/B

B5: M27-A10 (Fab, V domains shown)
VH: EVQLLESGGGLVQPGGSLRLSCAASGFTFSWYRMDWVRQAPGKGLEWVSSIWPSGGLTSYADSVKGRFTISRDNSKNTLYLQMNSLRAEDTAVYYCARGWAPGGDAFDIWGQGTMVTVSS
VL: DIQMTQSPSSLSASVGDRVTITCRASQSISAYLNWYQQKPGKAPQLLMYGVGSLQSGVPSRFSGSGSGTDFTLTISSLQPEDFATYFCQQGYTTPVTFGGGTKVEIK
notes: HC as printed runs into CH1
- ELISA (T/B): 3.2 T/B

B13: M12-C10 (Fab, V domains shown)
VH: EVQLLESGGGLVQPGGSLRLSCAASGFTFSDYEMHWVRQAPGKGLEWVSGISPSGGKTQYADSVKGRFTISRDNSKNTLYLQMNSLRAEDTAVYYCARDLKWGGRGSPDWYFDLWGRGTLVTVSS
VL: QSALTQPPSVSVSPGQTASITCSGDKLGEKYVSWYQQKPGQSPVVVIYQDNKRPSGIPERFSGSNSGNTATLTISGTQAVDEADYYCQAWDSYTVVFGGGSKLTVLG
notes: HC as printed runs into CH1
- ELISA (T/B): 8.3 T/B

B14: M12-D10 (Fab, V domains shown)
VH: EVQLLESGGGLVQPGGSLRLSCAASGFTFSNYPMDWVRQAPGKGLEWVSSISSSGGWTNYADSVKGRFTISRDNSKNTLYLQMNSLRAEDTAVYYCATDTSGSYLGFDYWGQGTLVTVSS
VL: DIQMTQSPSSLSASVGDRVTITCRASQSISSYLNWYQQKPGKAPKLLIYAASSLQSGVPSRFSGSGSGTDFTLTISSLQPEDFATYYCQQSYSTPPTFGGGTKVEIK
notes: HC as printed runs into CH1
- ELISA (T/B): 9.9 T/B

B15: M12-A08 (Fab, V domains shown)
VH: EVQLLESGGGLVQPGGSLRLSCAASGFTFSWYYMGWVRQAPGKGLEWVSWIVSSGGLTLYADSVKGRFTISRDNSKNTLYLQMNSLRAEDTAMYYCARTTVTTGDAFDIWGQGTMVTVSS
VL: DIQMTQSPSSLSASVGDRVTITCRASQSISRYLNWYQQKPGKAPKLLIYAASTLETGVPSRFSGSGSGTDFTLTITTLQPEDFVIYYCQQSYSTPYTFGQGTKLEIK
notes: HC as printed runs into CH1
- ELISA (T/B): 40.4 T/B

B17: M27-F04 (Fab, V domains shown)
VH: EVQLLESGGGLVQPGGSLRLSCAASGFTFSWYPMTWVRQAPGKGLEWVSSIGPSGGQTIYADSVKGRFTISRDNSKNTLYLQMNSLRAEDTAVYYCTTEYGDYGGGFDPWGQGTLVTVSS
VL: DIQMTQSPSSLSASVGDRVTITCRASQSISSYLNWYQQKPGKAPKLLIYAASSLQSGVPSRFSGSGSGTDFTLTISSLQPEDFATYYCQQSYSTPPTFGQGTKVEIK
notes: HC as printed runs into CH1
- ELISA (T/B): 10.5 T/B

B18: M12-C09 (Fab, V domains shown)
VH: EVQLLESGGGLVQPGGSLRLSCAASGFTFSSYAMVWVRQAPGKGLEWVSSIGSSGGFTLYADSVKGRFTISRDNSKNTLYLQMNSLRAEDTAVYYCASMNLGGGDAFDIWGQGTMVTVSS
VL: DIQMTQSPSSLSASVGDRVTITCRASQSIGIYLNWYHQKPGKAPNLLIYGASSLQSGVPSRFSGSGSGTDFTLTISSLQPGDFATYYCQHSYSTPFTFGGGTKVEIK
notes: HC as printed runs into CH1
- ELISA (T/B): 7 T/B

B19: M12-B04 (Fab, V domains shown)
VH: EVQLLESGGGLVQPGGSLRLSCAASGFTFSLYSMYWVRQAPGKGLEWVSRIRPSGGGTVYADSVKGRFTISRDNSKNTLYLQMNSLRAEDTAVYYCARDPLYSSGDVWGQGTTVTVSS
VL: DIQMTQSPSSLSASVGDRVTITCRASQGIRNDLGWYQHKPGKAPKLLIYAASILQSGVPSRFSGTASGTDFTLTISSLQPEDFATYFCLQDYEYPLTFGGGTKLDIK
notes: HC as printed runs into CH1
- ELISA (T/B): 18 T/B

B22: M27-B12 (Fab, V domains shown)
VH: EVQLLESGGGLVQPGGSLRLSCAASGFTFSWYQMMWVRQAPGKGLEWVSSISPSGGITEYADSVKGRFTISRDNSKNTLYLQMNSLRAEDTAVYYCARDRSSGWYYYGMDVWGQGTTVTVSS
VL: QYELTQPPAVSVSPGQTATITCSGDKLGDEYAAWYQQKPGQSPVLVIYQDRKRPSGIPERFSGSNFGNTATLTITGTQVMDEADYYCQAWGKRNVVFGGGTKLTVL
notes: HC as printed runs into CH1
- ELISA (T/B): 2.3 T/B

B23: M11-G09 (Fab, V domains shown)
VH: EVQLLESGGGLVQPGGSLRLSCAASGFTFSLYNMTWVRQAPGKGLEWVSYIYPSGGGTHYADSVKGRFTISRDNSKNTLYLQMNSLRAEDTAVYYCARDTGFWSADAFDIWGQGTMVTVSS
VL: DIQMTQSPSSLSASVGDRVTITCRTSQGINHYLNWYQQKPGKAPKILVFAASELQTGVPSRFSGTGSGTSYTLTITSLQPEDVATYYCQQTYTSPYTFGQGTKLEVK
notes: HC as printed runs into CH1
- ELISA (T/B): 23.6 T/B

Now from value to binder:

- ELISA (T/B): 2.2 T/B
B6: M27-G09 (Fab, V domains shown)
VH: EVQLLESGGGLVQPGGSLRLSCAASGFTFSEYDMAWVRQAPGKGLEWVSYIVSSGGFTSYADSVKGRFTISRDNSKNTLYLQMNSLRAEDTAVYYCTTWAGWIAAADYWGQGTLVTVSS
VL: DIQMTQSPSSVSASVGDRITITCRTRQSISNYLNWYQQKPGEPPKLLIFAASSLQSGVPSRFSGSGTGTEFTLTISSLQPEDLAIYYCQQSYDIPFTFGQGTKLEIK
notes: HC as printed runs into CH1

- ELISA (T/B): 29.3 T/B
B7: M28-E11 (Fab, V domains shown)
VH: EVQLLESGGGLVQPGGSLRLSCAASGFTFSLYDMTWVRQAPGKGLEWVSGISSSGGVTIYADSVKGRFTISRDNSKNTLYLQMNSLRAEDTAVYYCARTYYYDSSGYADAFDIWGQGTMVTVSS
VL: DIQMTQSPSSVSASVGDRVTINCRASQDISNWLAWYQQKPGKAPNLLIYAASSLQTGAPSRFSGSGSGTDFTLTISSLQPEDFGTYVCQQSYSLPWTFGLGTKVEVR
notes: HC as printed runs into CH1

- ELISA (T/B): 2.2 T/B
B8: M28-C03 (Fab, V domains shown)
VH: EVQLLESGGGLVQPGGSLRLSCAASGFTFSYYQMGWVRQAPGKGLEWVSSIYPSGGMTDYADSVKGRFTISRDNSKNTLYLQMNSLRAEDTAVYYCTRGSPWGDDAFDIWGQGTMVTVSS
VL: DIQMTQSPSSLSASVGDRVTITCRASQSINFYLNWYQQKPGKAPKLLIYVASSLESGVPSRFSGSASGTEFTLTISSLQPEDFATYYCLQSYSAPYTFGQGTKVEIT
notes: HC as printed runs into CH1

- ELISA (T/B): 41.6 T/B
B9: M28-D12 (Fab, V domains shown)
VH: EVQLLESGGGLVQPGGSLRLSCAASGFTFSWYTMHWVRQAPGKGLEWVSVIYPSGGPTSYADSVKGRFTISRDNSKNTLYLQMNSLRAEDTATYYCARDGSGSYLGFDYWGQGTLVTVSS
VL: DIQMTQSPSSLSASVGDRVTITCRASQSIATYLNWYQQKPGRAPKLLIYAASSLQSGVPSRFVGGGSGSGTHFTLTISSLQPEDFATYYCQQSYSTRETFGQGTKVEIK
notes: HC as printed runs into CH1

- ELISA (T/B): 4.1 T/B
B10: M27-G04 (Fab, V domains shown)
VH: EVQLLESGGGLVQPGGSLRLSCAASGFTFSAYYMVWVRQAPGKGLEWVSYISPSGGQTQYADSVKGRFTISRDNSKNTLYLQMNSLRAEDTAVYYCAREAISSSSFDYWGQGTLVTVSS
VL: DIQMTQSPSSLSASVGDRVTITCRASQRISYYLTWYQQKPGKVPKLLIYAASSLESGVPSRFSGSGSGTDFTLTISNLQPEDFATYYCQQAFSTPFTFGGGTKVEIK
notes: HC as printed runs into CH1

- ELISA (T/B): 10 T/B
B11: M27-F11 (Fab, V domains shown)
VH: EVQLLESGGGLVQPGGSLRLSCAASGFTFSSYHMMWVRQAPGKGLEWVSSIYPSGGATMYADSVKGRFTISRDNSKNTLYLQMNSLRAEDTAMYYCARDGYHYGDYTYFQHWGQGTLVTVSS
VL: DIQMTQSPSFLSASVGDRVTITCRASQGISSYLAWYQQKPGKAPKLLIYAASSLQSGVPSRFSGSGSGTDFTLTISSLQPEDFATYYCQQSYNTLRTFGPGTKVDLK
notes: HC as printed runs into CH1

- ELISA (T/B): 19 T/B
B12: M28-A01 (Fab, V domains shown)
VH: EVQLLESGGGLVQPGGSLRLSCAASGFTFSWYAMHWVRQAPGKGLEWVSGIYSSGGYTKYADSVKGRFTISRDNSKNTLYLQMNSLRAEDTAVYYCARDLSNGDDVFDIWGQGTMVTVSS
VL: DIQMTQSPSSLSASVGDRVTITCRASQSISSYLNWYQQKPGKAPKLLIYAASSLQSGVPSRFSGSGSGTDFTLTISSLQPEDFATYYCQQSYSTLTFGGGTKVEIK
notes: HC as printed runs into CH1

- ELISA (T/B): 31.4 T/B
B16: M27-G01 (Fab, V domains shown)
VH: EVQLLESGGGLVQPGGSLRLSCAASGFTFSLYRMFWVRQAPGKGLEWVSSIWSSGGPTMYADSVKGRFTISRDNSKNTLYLQMNSLRAEDTAVYYCAREYPSTYYFDYWGQGTLVTVSS
VL: B15 VL with R31T, A50G, T53S, E55Q, T56S, T76S, T77S, V84T, T94D, E105D
notes: HC as printed runs into CH1

- ELISA (T/B): 12.4 T/B
B20: M27-H10 (Fab, V domains shown)
VH: EVQLLESGGGLVQPGGSLRLSCAASGFTFSAYQMAWVRQAPGKGLEWVSVIYSSGGYTDYADSVKGRFTISRDNSKNTLYLQMNSLRAEDTAVYYCARHNWNDGAFDIWGQGTMVTVSS
VL: DIQMTQSPSSLSASVGDRVTITCRASQSISNYLNWYQQKPGKAPKFLIYAASSLQSGVPSRFSGSGSGTDFTLSISSLQPEDFATYYCQQSYSTPQTFGQGTKVEMK
notes: HC as printed runs into CH1

- ELISA (T/B): 41 T/B
B21: M28-E01 (Fab, V domains shown)
VH: EVQLLESGGGLVQPGGSLRLSCAASGFTFSSYPMGWVRQAPGKGLEWVSRISSSGGMTIYADSVKGRFTISRDNSKNTLYLQMNSLRAEDTAVYYCARDDWNVGMDVWGQGTTVTVSS
VL: B20 VL with N31S, F46L, R61K, F71Y, S74T, S91T, S93T, Q96W, M106I
notes: HC as printed runs into CH1

Source: patent US20260184815A1 (published 2026)
